These results are taken from FireProtDB (doi:10.1006/jmbi.1995.0323).

A word on the Tm: it is the temperature at the midpoint of the melting transition.

Sequences and labels used below:
B1: Subtilisin inhibitor, P01006 (parent)
chain: MRNTGAGPSPSVSRPPPSAAPLSGAALAAPGDAPSALYAPSALVLTVGKGVSATTAAPERAVTLTCAPGPSGTHPAAGSACADLAAVGGDLNALTRGEDVMCPMVYDPVLLTVDGVWQGKRVSYERVFSNECEMNAHGSSVFAF

In the series the parent is B1. Particulars: Streptomyces albogriseolus, Thermal, DSC, reversible: yes, structure 3SSI, whole UniProt chain shown.
[1] abbreviates: pH 7, 82.21 °C, Sodium phosphate 25 mM.
[2] abbreviates: pH 3.2, 53.36 °C, glycine 25 mM.

As to M134I, the melting temperature (Tm) runs as follows: (pH 3.2, glycine 25 mM) 46.1 °C; (pH 7, Sodium phosphate 25 mM) 78.3 °C; (pH 9.5, glycine 25 mM) 75.9 °C. The “change of melting temperature, mutant - wild type (higher = more stable)” value (“change of melting temperature, mutant” for short) is -7.3 °C (pH 3.2, glycine 25 mM); -3.9 °C (pH 7, Sodium phosphate 25 mM); -4.8 °C (pH 9.5, glycine 25 mM). Also, the “unfolding enthalpy (calorimetric)” value (pH 3.2, glycine 25 mM) is 98.8 kcal/mol; the “unfolding enthalpy (calorimetric)” value (pH 7, Sodium phosphate 25 mM) was found to be 179 kcal/mol; the “unfolding enthalpy (calorimetric)” value (pH 9.5, glycine 25 mM) was 175 kcal/mol. In addition, the “ddG of mutation (higher = less stable)” value by setting is: under setting [1], 1.89 kcal/mol; (pH 9.5, 80.7 °C, glycine 25 mM) 2.29 kcal/mol. Further, the unfolding free energy was found to be 4.14 kcal/mol under setting [1] and 3.75 kcal/mol (pH 9.5, 80.7 °C, glycine 25 mM).

In the case of M134A, under setting [2], the “ddG of mutation (higher = less stable)” value was 1.35 kcal/mol and the unfolding free energy was 4.2 kcal/mol. Further, where the note is “pH 3.2, glycine 25 mM”, the Tm was 49.3 °C; the “change of melting temperature, mutant” value was -4.1 °C; the “unfolding enthalpy (calorimetric)” value came to 113 kcal/mol. Also, under setting [1], the “ddG of mutation (higher = less stable)” value was 2.32 kcal/mol and the unfolding free energy worked out at 3.71 kcal/mol. Further, under “pH 9.5, glycine 25 mM”, the midpoint of thermal melting (Tm) worked out at 75.5 °C; the “change of melting temperature, mutant” value was -5.18 °C; the “unfolding enthalpy (calorimetric)” value stood at 193 kcal/mol.

For the variant M134L, under setting [2], the “ddG of mutation (higher = less stable)” value is -0.77 kcal/mol and the unfolding free energy was 6.32 kcal/mol. Moreover, under setting [1], the “ddG of mutation (higher = less stable)” value is -0.15 kcal/mol and the unfolding free energy worked out at 6.18 kcal/mol. Further, under “pH 7, Sodium phosphate 25 mM”, the Tm is 82.5 °C; the “change of melting temperature, mutant” value is 0.3 °C; the “unfolding enthalpy (calorimetric)” value came to 182 kcal/mol. Under “pH 9.5, 80.7 °C, glycine 25 mM”, the “ddG of mutation (higher = less stable)” value amounted to 0.29 kcal/mol and the unfolding free energy came to 5.75 kcal/mol. Moreover, for the setting “pH 9.5, glycine 25 mM”, the Tm was 80.2 °C; the “change of melting temperature, mutant” value is -0.48 °C; the “unfolding enthalpy (calorimetric)” value was 178 kcal/mol.

On to M134V, for which the “ddG of mutation (higher = less stable)” value by setting is: under setting [2], 1.35 kcal/mol; under setting [1], 1.84 kcal/mol; (pH 9.5, 80.7 °C, glycine 25 mM) 2.22 kcal/mol. For the same variant, the unfolding free energy by setting is: under setting [2], 4.2 kcal/mol; under setting [1], 4.19 kcal/mol; (pH 9.5, 80.7 °C, glycine 25 mM) 3.82 kcal/mol. Besides, the Tm is 49.1 °C (pH 3.2, glycine 25 mM); 78.6 °C (pH 7, Sodium phosphate 25 mM); 76.4 °C (pH 9.5, glycine 25 mM). Further, the “change of melting temperature, mutant” value by setting is: (pH 3.2, glycine 25 mM) -4.3 °C; (pH 7, Sodium phosphate 25 mM) -3.6 °C; (pH 9.5, glycine 25 mM) -4.33 °C. In addition, the “unfolding enthalpy (calorimetric)” value reads like this: (pH 3.2, glycine 25 mM) 107 kcal/mol; (pH 7, Sodium phosphate 25 mM) 179 kcal/mol; (pH 9.5, glycine 25 mM) 184 kcal/mol.

For M134G, under “pH 7, Sodium phosphate 25 mM”, the Tm turned out to be 68.6 °C; the “change of melting temperature, mutant” value was -13.6 °C; the “unfolding enthalpy (calorimetric)” value was 191 kcal/mol. Moreover, where the note is “pH 9.5, glycine 25 mM”, the Tm is 66.3 °C; the “change of melting temperature, mutant” value is -14.4 °C; the “unfolding enthalpy (calorimetric)” value was 187 kcal/mol.
